The text below walks through data of the Human Domainome abundance scans (Beltran et al. 2025).

The labels stand for the following.
B1: POU domain, class 4, transcription factor 3, residues 185 to 256; numbered along this chain, Q15319 (parent)
chain: RELEAFAERFKQRRIKLGVTQADVGAALANLKIPGVGSLSQSTICRFESLTLSHNNMIALKPVLQAWLEEAE

± gives the uncertainty stated by the source.

The variants in this series derive from B1. The experiment in a line: abundance fitness (aPCA) (normalised: wild type 0, dead -1); higher = more abundant; growth selection in yeast, the domain comes from the species named. The conditions noted are these: Homo sapiens.
Take RELEAFAERFKQRRIKLGVTQADVGAALANLKICGVGSLSQSTICRFESLTLSHNNMIALKPVLQAWLEEAE [P34C]: the abundance fitness is -0.137 ± 0.16. RELEAFAERFKQRRIKLGVTQADVGAALANLKIPGVGSLSQSTICRFESLSLSHNNMIALKPVLQAWLEEAE [T51S]: the abundance fitness came out at 0.056 ± 0.059. RELEAFAERFKPRRIKLGVTQADVGAALANLKIPGVGSLSQSTICRFESLTLSHNNMIALKPVLQAWLEEAE [Q12P]: the abundance fitness is -1.02 ± 0.17. To RELEAFAERFKQRRIKLGVTQADVGAALANLKIPGVGSLSQSTICRFESLTLSHNNMIALKPVLQAWLEEWE [A71W] belongs -0.281 ± 0.056; to RELEAFAERFKQRRIKLGVTQADVGAALANLKIPGVGSLSQSTICRFESLTLSHNNMIALKPVLQAWLEEYE [A71Y], -0.064 ± 0.041; to RELEAFAERFKQRRIKLGVTQADVGAALANLKIPGVGSLSQSTICRFESLTLSHNNMIALKPVLQAWLEESE [A71S], -0.108 ± 0.039. Regarding RELEAFAERFKQRRIKLGVTQADVGAALANLKIPGVGSLSQSTICRFESLTLSHNNMISLKPVLQAWLEEAE [A59S], the abundance fitness is -0.514 ± 0.4.

Consider RELEAFAERFKQRRIKLGVTQADVGAALANLKIPGVGSLSQSTICRFESLTLSHNNMILLKPVLQAWLEEAE [A59L], for which the abundance fitness is -0.393 ± 0.39.

Turning to RELEAVAERFKQRRIKLGVTQADVGAALANLKIPGVGSLSQSTICRFESLTLSHNNMIALKPVLQAWLEEAE [F6V], the abundance fitness was -0.701 ± 0.17. On to RELEAFAERFKQRRIKLGVTQAKVGAALANLKIPGVGSLSQSTICRFESLTLSHNNMIALKPVLQAWLEEAE [D23K], for which the abundance fitness was -0.121 ± 0.19. Regarding RELEAFAERFKQRRIKLGVTAADVGAALANLKIPGVGSLSQSTICRFESLTLSHNNMIALKPVLQAWLEEAE [Q21A], the abundance fitness is -0.086 ± 0.12.

Regarding RELEAFAERFKQRRIKLGVTNADVGAALANLKIPGVGSLSQSTICRFESLTLSHNNMIALKPVLQAWLEEAE [Q21N], the abundance fitness worked out at 0.112 ± 0.18. To RELEAFAERFKQRRIKLGVTQADVGAALANLKIPGVPSLSQSTICRFESLTLSHNNMIALKPVLQAWLEEAE [G37P] belongs -0.055 ± 0.083; to RELEAFAEYFKQRRIKLGVTQADVGAALANLKIPGVGSLSQSTICRFESLTLSHNNMIALKPVLQAWLEEAE [R9Y], -0.025 ± 0.091. For the variant RELCAFAERFKQRRIKLGVTQADVGAALANLKIPGVGSLSQSTICRFESLTLSHNNMIALKPVLQAWLEEAE [E4C], the abundance fitness is -0.17 ± 0.061. As for RELEAFAERFKQRRIKLGVTQADVGAALANLKIPGVGSLSQSTICRFESLTLSHNNTIALKPVLQAWLEEAE [M57T], the figure is -0.174 ± 0.096; as for RELEAFAERFKQRRIKLGVTQADVGAALANLKIPGVGSLSQSTICRFESLTLSHNNGIALKPVLQAWLEEAE [M57G], -0.634 ± 0.15; as for RELEAFAERFKQRRIKLGVTQADVGAALANLKIPGVGSLSQSTICRFESLTLSHNNMIALKPPLQAWLEEAE [V63P], -0.161 ± 0.087. As for RELEAFAERFKQRRIKLGVTQADVGAALANLKIPGVGSLSQSTICRFESLTLSHNNMIALKPTLQAWLEEAE [V63T], the figure is -0.254 ± 0.11; as for RELEAFAERFKQRRIKLGVTQADVGAALANLKIPGQGSLSQSTICRFESLTLSHNNMIALKPVLQAWLEEAE [V36Q], -0.261 ± 0.16; as for RELEAFAERFKQRRIKLGVTQADVGAALANLKIPGPGSLSQSTICRFESLTLSHNNMIALKPVLQAWLEEAE [V36P], -0.398 ± 0.06.

RELEAFAERFKQRRIKLGVTQADVGAALANLKIPGVGILSQSTICRFESLTLSHNNMIALKPVLQAWLEEAE [S38I]: the abundance fitness was -0.017 ± 0.042. As for RELEAFAERFKQRNIKLGVTQADVGAALANLKIPGVGSLSQSTICRFESLTLSHNNMIALKPVLQAWLEEAE [R14N], the figure is -1.02 ± 0.25.

Regarding RELEAFAERFKQRQIKLGVTQADVGAALANLKIPGVGSLSQSTICRFESLTLSHNNMIALKPVLQAWLEEAE [R14Q], the abundance fitness is -0.45 ± 0.13. To RELEAFAERFKQRRIKLGVTQADVGAALANLKIPGVGSLSQSTICRFESLTPSHNNMIALKPVLQAWLEEAE [L52P] belongs -0.984 ± 0.49. Regarding RELEAFAERFKQRRIKLGVTQADVGAALANLKIPGVGSLSQSTICRFESLTLSHNNMIALTPVLQAWLEEAE [K61T], the abundance fitness was -0.061 ± 0.058. As for RELEAFAERFKQRRIKLGVTQADVGAALANLKIPGVGSLSQSTICRFESLTLSHNNMIALKPVLVAWLEEAE [Q65V], the figure is -0.085 ± 0.21. Take RELEAFAERFKQRRIKLGVTQADVGAALANLKIPGVGSLSQSTICRFESLTLSHNNMIALKPVLDAWLEEAE [Q65D]: the abundance fitness is -0.065 ± 0.15. As for RELEAFAERFKQRRIKLGVTQADVGAALANLKIPGVGSLSQSTICRFESLTLSYNNMIALKPVLQAWLEEAE [H54Y], the figure is -0.027 ± 0.38; as for RELEAFAERFKQRRICLGVTQADVGAALANLKIPGVGSLSQSTICRFESLTLSHNNMIALKPVLQAWLEEAE [K16C], 0.017 ± 0.051; as for RELEAFAERFKQRRIWLGVTQADVGAALANLKIPGVGSLSQSTICRFESLTLSHNNMIALKPVLQAWLEEAE [K16W], -0.224 ± 0.037. To RELEAFAERFKQRRISLGVTQADVGAALANLKIPGVGSLSQSTICRFESLTLSHNNMIALKPVLQAWLEEAE [K16S] belongs 0.011 ± 0.027; to RELEAFAERFKQRRIKLGVTQADVGAALANLKIPGVGSLSQSTICRFESLTLSHNNMIALKPVLQAWLEHAE [E70H], -0.014 ± 0.064; to RELEAFAERFKQRRIKLGVTQADVGAALANLKIPGVGSLSQSTICRFESLTLSHNNMIALKPVLQAWLEAAE [E70A], -0.098 ± 0.042. In the case of RELEAFAERFKQRRIKLGVTQADVGAALANLKIPGVGSLSQSTICRFESLTLSHNNMIALKPVLQAWLEMAE [E70M], the abundance fitness is -0.253 ± 0.048. As for RELEAFAERFKQRRIKLGVTQADVGAALANLKIPGVGSLSQSTICRFESLTLSHNNMIALKPVLQAWLEWAE [E70W], the figure is -0.29 ± 0.038; as for RELEAFAERFKQRRIKLGVTQADVGAALANLKIPIVGSLSQSTICRFESLTLSHNNMIALKPVLQAWLEEAE [G35I], -0.569 ± 0.2; as for RELEAFAERFKQRRIKLGVTQADVGNALANLKIPGVGSLSQSTICRFESLTLSHNNMIALKPVLQAWLEEAE [A26N], -0.041 ± 0.053.
